Source: patent publication US7740850B2, “PDGFRβ-specific antibodies” (ImClone, LLC, priority 2007, dated 2010)

T1: m5β (Mus musculus, UniProt P05622)
T1 sequence (P05622 32-531 limits assumed): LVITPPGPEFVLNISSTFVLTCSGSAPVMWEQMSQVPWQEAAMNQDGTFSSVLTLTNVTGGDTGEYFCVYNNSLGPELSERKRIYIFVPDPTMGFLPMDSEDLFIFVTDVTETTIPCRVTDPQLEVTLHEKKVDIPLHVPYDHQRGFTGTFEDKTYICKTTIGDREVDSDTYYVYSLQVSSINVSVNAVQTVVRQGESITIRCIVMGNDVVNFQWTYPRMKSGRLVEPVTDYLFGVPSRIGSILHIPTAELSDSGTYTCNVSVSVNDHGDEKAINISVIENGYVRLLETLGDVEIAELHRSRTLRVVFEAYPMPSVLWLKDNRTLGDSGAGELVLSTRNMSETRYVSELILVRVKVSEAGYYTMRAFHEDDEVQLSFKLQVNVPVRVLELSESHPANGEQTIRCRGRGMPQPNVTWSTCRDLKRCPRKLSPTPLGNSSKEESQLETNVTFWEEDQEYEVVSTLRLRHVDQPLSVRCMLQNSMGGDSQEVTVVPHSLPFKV

B1: 1B3: human anti-mouse PDGFRβ antibody from Fab phage display library, human κ/γ1 constant regions; SEQ ID NOS in Table 1 (antibody, listed as Homo sapiens, V domains shown)
VH: QVQLQESGGGLVKPGGSLRLSCAASGFTFSSYSMNWVRQAPGKGLEWVSSISSSSSYIYYADSVKGRFTISRDNSKNTLYLQMNSLRAEDTAVYYCAKGGRPLLVFDFWGQGTLVTVS
VL: EIVMTQSPGTLSLSPGERATLSCRASQSVSSSYLAWYQQKPGQAPRLLIYDASKRATGIPARFSGSGSGTDFTLTISTLESEDSAVYYCQQRGYWPPITFGQGTRLEIKR
modifications: human kappa/gamma1 constant regions
B2: 2C5: PDGFRβ-specific human antibody binding both human and murine PDGFRβ; SEQ ID NOS in Table 1 (antibody, listed as Homo sapiens, V domains shown)
VH: QVQLVQSGAEVKKPGSSVKVSCKASGGTFSSYAISWVRQAPGQGLEWMGRIIPILGIANYAQKFQGRVTITADKSTSTAYMELSSLRSEDTAVYYCARDMGSRNYYYFYWGQGTLVTVSS
VL: EIVLTQSPATLSLSPGERATLSCRASQSVGRYLAWYQQKPGQAPRLLIYGASNRATGIPARFSGSGSGTDFTLTISSLEPEDFAVYYCQQRSNWPLTFGGGTKVEIK

Assays:
[1] = test system: blood vessels and pericytes in BxPC3 tumor xenografts; assay: Immunohistochemistry of tumor sections (CD31 / α-SMA double staining); assay type: in vivo, mouse; conditions: BxPC3 tumors, Day 34 post treatment
From the text: FIG. 5 represents results of immunohistochemical analysis of human xenografts after treatment with 1B3, DC101, or DC101 plus 1B3. On Day 34 (BxPC3 model, panel A to C) or 50 (NCI-H460 model, panel D to F) post treatment, six mice from each group were sacrificed and tumors were processed for IHC analysis. Tumors were sectioned and double staining for both blood vessels (anti-CD31) and pericyte/SMC coverage (α-SMA, panel B and E). Five digital immunofluorescence images of tumor periphery and tumor core from each section were acquired and quantified for total CD31^+ vessels (panel A and D), α-SMA^+ vessels (panel B and E), and the percentage of dual CD31^+/α-SMA^+ over total CD31^+ vessels (panel C and F). Two different quantitation methods were used to measure the degree of vascularity of individual tumor sections: vessel density (numbers of vessels/[…]) and percentage of vessel area (% vessel area over total tumor area). For statistic analysis, two-way ANOVA followed by Fisher's LSD method was used for multiple comparisons (Sigma Stat 3.1 Systat Software, Inc., Point Richmond, Calif.). *P<0.05 compared to the saline group. Open bars, tumor periphery; solid bars, tumor core. […]
Immunofluorescence images (at 200× magnification) were acquired using EZ-C1 2.20 software through a digital camera connected to a confocal microscope (Nikon Eclipse TE2000U). Computer assisted morphologic quantification was performed using Image Pro Plus software (MediaCybernatics, Silver Spring, Md.) and analyzed from each section.
Five digital images of tumor periphery and tumor core from each section were counted for total CD31^+ vessels, α-SMA^+ vessels, mature vessels (dual CD31^+ and α-SMA^+), and the percentage of dual CD31^+/α-SMA^+ vessels over total CD31^+ vessels. Two different quantitation methods were used to measure the degree of vascularity of individual tumor sections: vessel density (numbers of vessels/[…]) and percentage of vessel area (% vessel area over total tumor area). Computer assisted morphologic quantification was performed using Image Pro Plus software. […]

mouse PDGFRα = mouse PDGFRα (Mus musculus, UniProt P26618); assay: Binding to PDGFRα; conditions: data not shown
mouse PDGFRα, sequence (P26618 25-1089): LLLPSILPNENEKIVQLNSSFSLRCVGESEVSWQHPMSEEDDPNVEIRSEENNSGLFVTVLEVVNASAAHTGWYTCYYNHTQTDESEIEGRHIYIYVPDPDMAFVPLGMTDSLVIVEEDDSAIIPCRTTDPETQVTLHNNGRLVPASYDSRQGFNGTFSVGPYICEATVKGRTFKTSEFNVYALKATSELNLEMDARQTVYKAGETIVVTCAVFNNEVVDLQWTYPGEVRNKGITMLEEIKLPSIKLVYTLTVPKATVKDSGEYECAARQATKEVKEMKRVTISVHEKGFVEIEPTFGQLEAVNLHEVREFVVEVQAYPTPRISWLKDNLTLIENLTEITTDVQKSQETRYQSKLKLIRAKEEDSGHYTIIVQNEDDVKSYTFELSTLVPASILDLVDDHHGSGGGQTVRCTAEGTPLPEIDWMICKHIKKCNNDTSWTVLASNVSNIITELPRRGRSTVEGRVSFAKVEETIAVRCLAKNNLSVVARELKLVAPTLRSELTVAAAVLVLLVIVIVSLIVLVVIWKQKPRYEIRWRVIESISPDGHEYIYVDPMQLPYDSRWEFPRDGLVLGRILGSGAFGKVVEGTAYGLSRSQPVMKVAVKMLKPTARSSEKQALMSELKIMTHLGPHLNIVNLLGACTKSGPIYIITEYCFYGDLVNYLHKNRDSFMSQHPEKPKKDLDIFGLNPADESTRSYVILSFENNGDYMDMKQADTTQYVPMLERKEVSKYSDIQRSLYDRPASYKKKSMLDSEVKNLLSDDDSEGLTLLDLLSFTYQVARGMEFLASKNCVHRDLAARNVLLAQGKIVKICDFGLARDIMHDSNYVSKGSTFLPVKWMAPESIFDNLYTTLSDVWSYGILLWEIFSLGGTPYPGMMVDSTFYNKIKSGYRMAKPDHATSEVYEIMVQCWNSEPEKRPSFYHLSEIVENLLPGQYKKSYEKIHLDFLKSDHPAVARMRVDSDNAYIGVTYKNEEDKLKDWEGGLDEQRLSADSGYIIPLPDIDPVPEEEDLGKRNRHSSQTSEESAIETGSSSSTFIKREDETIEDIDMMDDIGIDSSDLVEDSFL

β1-2 = target: T2, β1-2 (Homo sapiens, UniProt P09619); assay: Epitope mapping, shorter version of PDGFRβ (D1D2); assay type: binding; conditions: ✓ / X, key not given
T2 construct: Shorter versions of PDGFRβ, including D1D2, D2D3 and D1D2D3, were then made; made in house
T2 sequence (P09619 33-210): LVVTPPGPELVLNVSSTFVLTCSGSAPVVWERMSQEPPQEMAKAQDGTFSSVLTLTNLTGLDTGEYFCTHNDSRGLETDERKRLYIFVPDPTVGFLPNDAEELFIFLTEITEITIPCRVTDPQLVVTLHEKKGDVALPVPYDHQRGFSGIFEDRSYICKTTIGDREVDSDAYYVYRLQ
Method: (§1) 2C5 binds to domain 1 (D1) and domain 2 (D2) of PDGFRβ. Various chimeric constructs of PDGFRβ and PDGFRα were first made by domain swapping, starting from N-terminus to C-terminus with PDGFRβ domain(s) replacing PDGFRα domain(s). The PDGFRβ/α chimera were tested for the ability of 2C5 binding. Shorter versions of PDGFRβ, including D1D2, D2D3 and D1D2D3, were then made to confirm the 2C5 binding domains on PDGFRβ.

m5β = target: T1, m5β; assay: Epitope mapping; assay type: binding; conditions: ✓ / X, key not given
Method: as §1

PDGFRβ = assay: Epitope mapping, binding domains; conditions: chimeric and shorter PDGFRβ constructs
Method: as §1

h5β = h5β (Homo sapiens, UniProt P09619); assay: Epitope mapping; assay type: binding; conditions: ✓ / X, key not given
h5β, sequence (P09619 33-532 limits assumed): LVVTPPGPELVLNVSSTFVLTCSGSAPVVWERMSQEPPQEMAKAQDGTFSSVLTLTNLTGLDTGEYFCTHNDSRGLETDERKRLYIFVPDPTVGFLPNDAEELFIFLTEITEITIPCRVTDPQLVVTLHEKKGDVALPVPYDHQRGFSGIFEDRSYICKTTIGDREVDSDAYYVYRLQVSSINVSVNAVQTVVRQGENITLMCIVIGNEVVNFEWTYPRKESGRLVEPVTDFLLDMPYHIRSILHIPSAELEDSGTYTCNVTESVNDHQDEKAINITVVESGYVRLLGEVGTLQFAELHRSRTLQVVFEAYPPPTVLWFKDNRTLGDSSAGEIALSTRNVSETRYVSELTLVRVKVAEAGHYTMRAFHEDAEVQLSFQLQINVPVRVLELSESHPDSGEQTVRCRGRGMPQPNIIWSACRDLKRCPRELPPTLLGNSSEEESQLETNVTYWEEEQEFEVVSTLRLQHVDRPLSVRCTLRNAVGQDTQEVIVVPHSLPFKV
Method: as §1, with “Various” for “2C5 binds to domain 1 (D1) and domain 2 (D2) of PDGFRβ. Various”

Molecule	CD31^+ vessel density ([1]; 40 mg/kg three times a week)	α-SMA^+ vessel density / α-SMA staining ([1]; 40 mg/kg three times a week)	percentage of CD31/α-SMA double positive (mature) vessels over total CD31^+ vessels ([1]; versus saline)	binding to mouse PDGFRα (mouse PDGFRα)	binding to β1-2 (β1-2)	binding to m5β (m5β)	binding domains on PDGFRβ (PDGFRβ)	binding to h5β (h5β)
B1	no significant effect on overall tumor vessel density	reduced the α-SMA staining in tumor periphery	reduced percentage	did not bind	–	–	–	–
B2	–	–	–	–	✓	✓	binds to PDGFRβ via both D1 and D2 of the receptor	✓
